Data taken from publication doi:10.1101/490516, “Molecular mechanism of the Orai channel activation” (bioRxiv, 2018).

Target: the molecule itself
Test: crystal structure; 4.5 Å, molecular replacement with the closed Orai structure 4HKR; protein in NG/NM with POPC:POPE:POPG; sitting drop, 0.05 M NaCl, 0.02 M MgCl2, 0.1 M sodium citrate pH 6.5, 16%-20% PEG400, 17 °C

B1: dOrai-P288L channel (Drosophila melanogaster Orai, amino acids 132-341, C224S, C283T, P288L) (domain or fragment, UniProt Q9U6B8 132-341, looked up)
chain: SMSQSGEDLHSPTYLSWRKLQLSRAKLKASSKTSALLSGFAMVAMVEVQLDHDTNVPPGMLIAFAICTTLLVAVHMLALMISTCILPNIETVSNLHSISLVHESPHERLHWYIETAWAFSTLLGLILFLLEIAILCWVKFYDLSPPAAWSATVVLILVMIIFMAFAIHFYRSLVSHKYEVTVSGIRELEMLKEQMEQDHLEHHNNIRNNG
notes: Orai, Drosophila melanogaster, Uniprot Q9U6B8, amino acid residues 132-341 with C224S, C283T and P288L; codons optimized for Homo sapiens; pEG-BacMam vector; PreScission site and eGFP at the C-terminus, eGFP cleaved by 3C protease on the Ni-NTA beads; No His tag is described, though Ni-NTA beads were used; it probably left with the eGFP; also called dOrai1-P288L; open Orai channel; source: …
stoichiometry N: 6
